Test results from patent US20040053235A1 (published 2004).

Target: the molecule itself
Assay: size exclusion chromatography on Superdex 200: activity peaks at 42.4 and 87.5 kD, each a single 42.2 kD polypeptide on SDS-PAGE (self-association)
Protocol: Further purification of the enzyme activity was carried out by Ni2+ affinity chromatography (which binds the poly-histidine tag of the recombinant protein) and size exclusion chromatography. Nickel affinity chromatography was carried out by passing an E. coli extract, prepared as described above, through a column containing NTA-agarose (Novagen “His-Bind Resin”). 5 ml of the resin were washed with 30 ml H₂O, charged with 30 ml NiSO₄ washed with 30 ml H₂O and equilibrated with 30 ml 50 mM Na-phosphate pH 8, 300 mM NaCl. The E. coli pellet was suspended in 50 mM Na-phosphate pH 8, 300 mM NaCl and sonicated. The suspension was centrifuged again (9000 g, 20 min). The supernatant was stirred with the Ni-resin on ice for 1 hour. The suspension was transferred into a column. After settling down the column was washed with 250 ml 50 mM Na-phosphate pH 6 containing 300 mM NaCl an d 10% glycerol. Ni-bound protein was eluted with 500 mM imidazole/50 mM Na-phosphate at pH 6 containing 300 mM NaCl. Fractions were collected and assayed for L-galactose dehydrogenase activity. […] This sample was then subjected to size exclusion chromatography on a Superdex 200 column (Amersham-Pharmacia Biotech) using 25 mM tris-HCl buffer pH 7 containing 150 mM NaCl as eluent Fractions (1 ml) were collected and two peaks of activity corresponding to molecular weights of 42.4 and 87.5 kD were detected. […]

B1: recombinant Arabidopsis thaliana L-galactose dehydrogenase (expressed in E. coli from pRSETB-LgalDH, with poly-histidine tag) (enzyme)
chain: MTKIELRALGNTGLKVSAVGFGASPLGSVFGPVAEDDAVATVREAFRLGINFFDTSPYYGGTLSEKMLGKGLKALQVPRSDYIVATKCGRYKEGFDFSAERVRKSIDESLERLQLDYVDILHCHDIEFGSLDQIVSETIPALQKLKQEGKTRFIGITGLPLDIFTYVLDRVPPGTVDVILSYCHYGVNDSTLLDLLPYLKSKGVGVISASPLAMGLLTEQGPPEWHPASPELKSASKAAVAHCKSKGKKITKLALQYSLANKEISSVLVGMSSVSQVEENVAAVTELESLGMDQETLSEVEAILEPVKNLTWPSGIHQN
notes: The entry describes one subunit; also called recombinant L-galDH; not shown: poly-histidine tag and vector-encoded residues from pRSETB
B1: binds.
